Results taken from patent publication US10786550B2, “Blockade of CCL18 signaling via CCR6 as a therapeutic option in treating interstitial lung disease” (UNIVERSITÄTSKLINIKUM FREIBURG, priority 2010, dated 2020).
Entries after “also recorded” stand apart in the source; their conditions may differ.

T1: CCR6 (Homo sapiens, UniProt P51684)
T1 sequence (P51684 1-374): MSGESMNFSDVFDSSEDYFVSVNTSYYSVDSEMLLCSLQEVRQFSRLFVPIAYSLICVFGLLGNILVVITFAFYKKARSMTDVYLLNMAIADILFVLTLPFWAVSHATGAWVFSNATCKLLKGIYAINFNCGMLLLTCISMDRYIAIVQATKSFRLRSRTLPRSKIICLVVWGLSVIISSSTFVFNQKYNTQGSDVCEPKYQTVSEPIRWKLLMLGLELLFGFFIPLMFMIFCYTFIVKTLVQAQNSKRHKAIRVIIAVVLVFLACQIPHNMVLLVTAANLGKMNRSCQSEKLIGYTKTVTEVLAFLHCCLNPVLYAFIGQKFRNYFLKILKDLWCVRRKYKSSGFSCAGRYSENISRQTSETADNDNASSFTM

B1: CCL18: human recombinant CCL18, chemokine ligand 18, ligand/agonist of CCR6 receptor (protein)
chain: AQVGTNKELCCLVYTSWQIPQKFIVDYSETSPQCPKPGVILLTKRGRQICADPNKKWVQKYISDLKLNA

Tests used:
soluble CCR6 (sCCR6) = test: Blocking of free soluble CCR6 detection by ELISA; assay type: binding, human; conditions: ligand 100 ng/ml, 1 h
Description: Sera were diluted with an equal volume of PBS/BSA (1% bovine serum albumin, Sigma, Deisenhofen, Germany) either without any additives or containing CCL18 or CCL20 (both PeproTech, Hamburg, Germany; 100 ng/ml each). The diluted sera were then incubated for 1 h at 37° C. and subsequently measured by ELISA.
The sCCR6 ELISA described in Example 8 uses a monoclonal anti-CCR6 antibody as a capture antibody bound at the plate and a biotin-conjugated polyclonal anti-CCR6 antibody as a detection antibody. Most of the monoclonal anti CCR6 antibodies are directed against the N-terminal part of the receptor bearing the ligand binding site. In order to test whether the antibody recognition site of the sCCR6 molecule in sera from fibrotic patients might be covered with the ligand because of the high abundance of CCL18 in these sera, sera from healthy volunteers were incubated with 100 ng/ml of CCL18 or CCL20, respectively and sCCR6 was measured in blocked and unblocked sera by ELISA. Addition of these CCR6 ligands leads to a marked reduction of the sCCR6 signal (FIG. 20).

CCR6 [1] = biological target: T1, CCR6; test: Inhibition of CCL18-induced CCR6 down-regulation on PBMNC/lymphocytes (FACS); assay type: cell-based; set-up: endogenous in cells; host or cells: freshly isolated human peripheral blood mononuclear cells; conditions: for CCL18 induced down-regulation of CCR6 expression in presence of inhibitor: CCL18 10 ng/ml + inhibitor 100 ng/ml, FACS
Description: Freshly isolated mononuclear cells were incubated for 20 minutes with 10 ng/ml of CCL18, 100 ng/ml of the inhibitor peptide PS-AU-105 (polypeptide according to SEQ ID NO.: 9), a combination of both or were left untreated. The incubation was performed in RPMI1640 with 10% fetal calf serum and 100 U/ml Streptomycin/Penicillin at 37° C. After the incubation, the cells were centrifugated and the supernatant was discarded. The cells were fixed with 4% paraformaldehyde for 5 minutes on ice and washed twice in PBS containing 1% FCS. After fixation the cells were stained using a fluorescein-conjugated antibody against CCR6 (R&D systems, Wiesbaden, FRG) and analyzed by flow cytometry (FACScalibur and Quantiquest; both Becton Dickinson, Franklin Lakes, USA).

CCR6 [2] = biological target: T1, CCR6; test: αSMA induction in RLE-6TN transiently transfected with human CCR6; assay type: cell-based, rat; set-up: expressed in transfected cells; host or cells: RLE-6TN (rat alveolar epithelial cell line), transient transfection
From the text: In contrast, all stimulations induced the expression of CD90 (FIGS. 9B and C) although CD90 expression was more intense using CCL18. […] The cells were therefore transiently transfected with a commercially available plasmid containing a DNA sequence coding for human CCR6.

RLE-6TN [3] = test: EMT of rat alveolar epithelial cell line RLE-6TN; assay type: cell-based; conditions: for differentiation into fibroblast-like cells (EMT, morphology): culture period 6 days
RLE-6TN [4] = test: EMT of rat alveolar epithelial cell line RLE-6TN; assay type: cell-based; conditions: 6 days
Description: (§1) If not otherwise mentioned cells were stimulated with 10 ng/ml human recombinant CCL18, 2.5 ng/ml TGFβ with or without additional 1 ng/ml TNFα.
After the indicated culture period the cells were washed once in PBS and lysed in ice cold lysis buffer. Whole cell lysates were boiled at 93° C. for 5 minutes in equal volumes of loading buffer (0.5M Tris-HCl pH 6.8, 2% SDS, 0, 05% bromphenolblue, 20% 2-mercaptoethanol, 10% Glycerol).
All samples were subjected to 12% sodium dodecylsulfate-PAGE, separated by electrophoresis and transferred to a polyvinylidene difluoride membrane (PVDF). After blocking for 2 h in Tris-buffered saline (TBS) containing 5% non-fat dry milk, the membranes were incubated with primary antibody (rabbit-anti-collagen I (Rockland, Gilbertsville Pa.); anti αSMA (rabbit-anti-aSMA (Abcam, Cambridge, Mass.); anti vimentin (Santa Cruz); anti CCR6: CKR6/C20, Santa Cruz) diluted 1:700 with TBS at 4° C. overnight. Visualization was performed using appropriate secondary antibodies labeled with IRDye 800CW or IRDye 700CW (Li-COR Bioscience, Bad Homburg, Germany) diluted 1:10 000-1:20000 for 2 h and scanned using Odyssey system (Li-COR Biosience) according to the manufactures instructions.

CCR6 [5] = biological target: T1, CCR6; test: CCL18-induced collagen I and αSMA mRNA expression in human lung fibroblast lines (real-time PCR); assay type: cell-based; set-up: endogenous in cells; conditions: four human lung fibroblast cell lines
Description: as §1
After the indicated culture period total RNA was extracted using TRIzol Reagent according to the manufacturer's protocol (Invitrogen, Karlsruhe, Germany). Total RNA was reverse-transcribed with StrataScript RT (Stratagene, Santa Clara, Calif.) using oligo (dT)12-18 primer to produce cDNA according to the manufacturer's protocol. Specific primers for human CCR6, collagen type I, alpha-smooth muscle actin and GAPDH were designed using Primer3 software (Whitehead Institute for Biomedical Research, Cambridge, USA; http://frodo.wi.mit.edu/cgi-bin/primer3/primer3_www.cgi), Amplify1.2 software (University of Wisconsin, USA; http://engels.genetics.wisc.edu/amplify) using LocusLink and GenBank databases (National Center for Biotechnology Information; http://www.ncbi.nlm.nih.gov/LocusLink/index.html). Accession code numbers for the nucleotide sequences used to generate the respective primers and the primer sequences are depicted in FIG. 17.
All primers were intron-spanning and synthesized by MWG-Biotech (MWG-Biotech AG, Germany). […] A threshold cycle value (Ct) was calculated and used to compute the relative level of specific mRNA by the following formula: “relative expression=2^(Ct GAPDH-Ct CCL18)×10,000” for each cDNA sample.

A549 = test: EMT induction by CCL18 in adenocarcinoma cell line A549; assay type: cell-based, human
Description: Cells of the adenocarcinoma cell line A549 were seeded in 6-well plates and allowed to adhere over night. After adherence the cells were stimulated with the indicated amount of CCL18. TGFβ was used as a positive control. […]

CCR6 [6] = biological target: T1, CCR6; test: CCL18-induced FGF2 release by lung fibroblasts (FGF2 ELISA); assay type: cell-based; set-up: endogenous in cells; conditions: CCL18 10 ng/ml, 24 h
Description: To estimate CCL18-induced FGF2 release fibroblasts were harvested, counted and seeded 300.000 cells per well in a 6-well cell culture plate in Quantum 333. Cells were allowed to attach over night and the medium was replaced with 1 ml of DMEM plus 10% FCS. Cells were either left un-stimulated or were stimulated with 10 ng/ml of human recombinant CCL18. To block CCR6/CCL18 interaction a blocking antibody against CCR6 (R&D systems, Wiesbaden, FRG) or an irrelevant antibody (mouse anti human IgG, R&D Systems) was added to a final concentration of 20 μg/ml in parallel cultures. After 24 h of culture the supernatant was harvested and stored at −80° C. until FGF2 determination.

human primary AECII = test: EMT of human primary alveolar epithelial cells type II; assay type: cell-based
Description: as §1
AECII were isolated as described previously (2). In brief, macroscopically tumor-free lung tissue was first sliced and slices were washed three times at 4° C. in phosphate-buffered saline (PBS) and then digested in sterile dispase solution (2.5 mg dispase II (Invitrogen GmbH, Karlsruhe, Germany) ml and 50 μg/ml DNase I (Roche Diagnostics, Mannheim, Germany)) at 37° C. for 60 minutes. After dispase digestion, the slices were thoroughly pipetted for several minutes using a 10 ml pipette with a wide inlet. Crude tissue and cell suspensions were filtered through nylon gauze with meshes of 50 and 20 μm. The cell suspension was then layered onto a density gradient solution (PAN Biotech GmbH, Aidenbach, Germany) and centrifuged at 800×g for 20 min.
The cells from interphase were washed and incubated in 100 mm Petri dishes (max. 6×10^7 cells/dish) in RPMI (Invitrogen, Karlsruhe, Germany) with 10% fetal calf serum (FCS) (PAA Laboratories GmbH, Colbe, Germany) and 1% penicillin/streptomycin (Biochrom AG, Berlin, Germany) at 37° C. in humidified incubator (5% CO2, 37° C.) for 15, 20 and if possible 30 minutes to remove adherent (mostly alveolar macrophages, monocytes and fibroblasts) from non-adherent cells. […]

[7] = sera with low and medium sCCR6 concentrations
[8] = serum with high sCCR6 concentration

Row | Molecule | sCCR6 detection by ELISA after ligand addition (soluble CCR6 (sCCR6); [7]) | reduction of sCCR6 ELISA signal (soluble CCR6 (sCCR6); [8]) [%] | sCCR6 detection by ELISA after ligand addition (soluble CCR6 (sCCR6); [8]) | αSMA expression in CCR6 transfected versus mock transfected cells (CCR6 [2]) | differentiation into fibroblast-like cells (EMT, morphology) (RLE-6TN [3]) | αSMA expression (fluorescence microscopy) (RLE-6TN [3]; day 6) | vimentin expression (Western Blot) (RLE-6TN [4]) | αSMA expression (Western Blot) (RLE-6TN [4]) | other results
1 | CCL20: Chemokine ligand 20, CCR6 ligand (PeproTech) [reference compound] | nearly abolishes CCR6 detection; also recorded: totally blocked | 14 | reduced by one third |  |  |  |  |  | 
2 | PS-AU-105: inhibitor peptide, polypeptide according to SEQ ID NO.: 9, binds to and inhibits CCR6 receptor (EDCCLVYTSWQIHPKFIVDYSETSPQCPK; peptide inhibitor of CCR6) |  |  |  |  |  |  |  |  | CCL18 induced down-regulation of CCR6 expression in presence of inhibitor (CCR6 [1]; 20 minutes): diminished; also recorded: fails to down-regulate the CCR6+ sub-population; CCL18 induced down-regulation of CCR6 expression in presence of inhibitor (CCR6 [1]; 20 minutes, listed as PS-AU-1015): this down-regulation does not occur; effect of inhibitor only on CCR6 expression (CCR6 [1]; inhibitor 100 ng/ml without CCL18, 20 minutes): no effect
3 | TGFβ: cytokine stimulus used as positive control for EMT [reference compound] |  |  |  | induced αSMA expression in both cell types; also recorded: induce αSMA expression in both cell lines | undergoes epithelial-mesenchymal transition (EMT); also recorded: more pronounced | induces αSMA expression | failed to induce the expression of vimentin | strong expression of αSMA | 
4 | B1 | nearly abolishes CCR6 detection; also recorded: totally blocked | 36 | reduced by one third | induced αSMA in CCR6 transfected cells, but not in mock transfected cells; also recorded: found in CCR6 transfected RLE-6TN but not in mock-transfected cells | undergoes epithelial-mesenchymal transition (EMT); also recorded: induces a differentiation into spindle-shaped, fibroblast-like cells | did not | expression of vimentin | Only a faint expression of αSMA | CCR6 surface expression after incubation with CCL18 (CCR6 [1]; CCL18 10 ng/ml, 20 minutes): decrease in the percentage of CCR6^+ cells; also recorded: marked down-regulation; also recorded: diminishes the peak markedly; collagen I mRNA expression induced (CCR6 [5]): three out of four; also recorded: up-regulates collagen I expression in three of four cell lines; FSP1 mRNA expression (qPCR) (A549; 72 h): marked and dose dependent up-regulation; also recorded: up-regulation of FSP1 expression; snail expression (western blot) (A549; 72 h): induces dose-dependently the expression; also recorded: induces snail expression; E-cadherin expression (qPCR) (A549; b569: after 24 h, b77: after 72 h): substantially down-regulated; also recorded: down-regulation of E-cadherin expression; FGF2 release on CCL18 stimulation (CCR6 [6]; fibroblasts from fibrotic lungs): significant up-regulation; also recorded: further up-regulated; FGF2 release on CCL18 stimulation (CCR6 [6]; fibroblasts from non-fibrotic lungs): only marginal; also recorded: only marginally; αSMA and vimentin expression (Western blot) (human primary AECII; 12 days): strongly up-regulates both molecules; induction of EMT (human primary AECII; CCL18 with or without TNFα): induces EMT; CD90 expression (immuno-fluorescence) (RLE-6TN [3]; day 6): more intense
